Assay results from patent US6747005.

Experiments:
[1] = biological target: recombinant Importin α Rch1, full-length, P52292
[2] = biological target: ΔN-Rch1 lacking the Importin β binding site, P52292
[3] = biological target: Rch1 N-terminal fragment (residues 1-95), P52292

B1: recombinant CBP HAT domain (amino acids 1098-1758) (protein)
chain: TLEALYRQDPESLPFRQPVDPQLLGIPDYFDIVKNPMDLSTIKRKLDTGQYQEPWQYVDDVWLMFNNAWLYNRKTSRVYKFCSKLAEVFEQEIDPVMQSLGYCCGRKYEFSPQTLCCYGKQLCTIPRDAAYYSYQNRYHFCEKCFTEIQGENVTLGDDPSQPQTTISKDQFEKKKNDTLDPEPFVDCKECGRKMHQICVLHYDIIWPSGFVCDNCLKKTGRPRKENKFSAKRLQTTRLGNHLEDRVNKFLRRQNHPEAGEVFVRVVASSDKTVEVKPGMKSRFVDSGEMSESFPYRTKALFAFEEIDGVDVCFFGMHVQNTALIAPHQIQGRVYISYLDSIHFFRPRCLRTAVYHEILIGYLEYVKKLGYVTGHIWACPPSEGDDYIFHCHPPDQKIPKPKRLQEWYKKMLDKAFAERIINDYKDIFKQANEDRLTSAKELPYFEGDFWPNVLEESIKELEQEEEERKKEESTAASETPEGSQGDSKNAKKKNNKKTNKNKSSISRANKKKPSMPNVSNDLSQKLYATMEKHKEVFFVIHLHAGPVISTQPPIVDPDPLLSCDLMDGRDAFLTLARDKHWEFSSLRRSKWSTLCMLVELHTQGQDRFVYTCNECKHHVETRWHCTVCEDYDLCINCYNTKSHTHKMVKWGLGLDDEGSSQG
Importin α7
  acetylation (analysis as in the first experiment): CBP was shown to acetylate Importin α family members, Rch1 and Importin α7
[1]
  acetylation ([14-C]-acetyl coA, SDS-PAGE, blot exposed to film): Only the full-length Rch1 and the N-terminal 1-95 fragment showed acetylation.
  acetylation (analysis as in the first experiment): CBP was shown to acetylate Importin α family members, Rch1 and Importin α7
[2]
  acetylation ([14-C]-acetyl coA, SDS-PAGE, blot exposed to film): Only the full-length Rch1 and the N-terminal 1-95 fragment showed acetylation. (ΔN-Rch1 showed none)
[3]
  acetylation ([14-C]-acetyl coA, SDS-PAGE, blot exposed to film): Only the full-length Rch1 and the N-terminal 1-95 fragment showed acetylation.
